These results are taken from paper PMC10786891, “Massively parallel profiling of RNA-targeting CRISPR-Cas13d”.

Residue numbers refer to the chain shown, from its start. Names may count otherwise.

To fix the notation:
T1: EsCas13d, nuclease-dead (Eubacterium siraeum, UniProt B0MS50, R295A;H300A;R849A;H854A)
T1 sequence: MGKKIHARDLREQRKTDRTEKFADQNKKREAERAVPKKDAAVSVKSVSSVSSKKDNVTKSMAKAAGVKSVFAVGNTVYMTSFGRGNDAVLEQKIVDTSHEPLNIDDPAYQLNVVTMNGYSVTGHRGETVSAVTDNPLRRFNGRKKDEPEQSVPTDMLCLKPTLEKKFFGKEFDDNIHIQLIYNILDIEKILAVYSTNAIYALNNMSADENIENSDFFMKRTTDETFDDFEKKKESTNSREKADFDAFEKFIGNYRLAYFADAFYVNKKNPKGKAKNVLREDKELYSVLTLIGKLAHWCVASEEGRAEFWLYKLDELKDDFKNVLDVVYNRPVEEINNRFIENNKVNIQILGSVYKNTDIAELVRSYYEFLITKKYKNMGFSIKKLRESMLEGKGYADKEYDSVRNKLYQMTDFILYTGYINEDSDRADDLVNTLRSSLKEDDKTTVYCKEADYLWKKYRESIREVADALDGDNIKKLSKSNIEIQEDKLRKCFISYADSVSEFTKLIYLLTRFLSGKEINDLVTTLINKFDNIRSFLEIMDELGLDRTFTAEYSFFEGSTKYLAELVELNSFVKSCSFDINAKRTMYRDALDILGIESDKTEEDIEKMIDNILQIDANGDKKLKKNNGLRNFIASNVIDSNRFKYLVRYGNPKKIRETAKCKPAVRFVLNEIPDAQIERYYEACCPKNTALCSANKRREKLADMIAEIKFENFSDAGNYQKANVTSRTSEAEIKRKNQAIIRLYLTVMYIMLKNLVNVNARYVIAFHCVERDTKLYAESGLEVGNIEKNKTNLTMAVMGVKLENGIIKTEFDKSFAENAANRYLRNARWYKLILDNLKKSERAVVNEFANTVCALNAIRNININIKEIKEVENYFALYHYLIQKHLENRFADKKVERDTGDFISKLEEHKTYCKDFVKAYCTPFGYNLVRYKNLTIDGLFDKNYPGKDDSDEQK

B1: target 1 insU 3' of 22,insU 3' of 4 (mixed)
RNA 1: CACCCGUGCAAAAAUGCAGGGGUCUAAAACUGAGCGGAUAACCUCUCUAUGG
RNA 2: GGGAAUGGAUCCACAUCUACGAAUUCGUACUCAUAGAGAGGUUAUCCGCUUCACCGAGAUCGGAAGAGCACACGU
B2: target 1 insG 3' of 22,insU 3' of 7 (mixed)
RNA 1: B1 RNA 1
RNA 2: B1 RNA 2 with U31G, C47U, G48C, C49G, U50C
B3: target 1 insC 3' of 22,insG 3' of 11 (mixed)
RNA 1: B1 RNA 1
RNA 2: B1 RNA 2 with U31C, U43G, A44U, U45A, C46U, G48C, C49G, U50C
B4: target 3 insA 3' of 22,insA 3' of 2 (mixed)
RNA 1: CACCCGUGCAAAAUUGCAGGGGUCUAAAACGACCUGAAUAUUUCAGAUCAAA
RNA 2: GGGAAUGGAUCCACAUCUACGAAUUCGUUUAUUGAUCUGAAAUAUUCAGGUACUGCAGAUCGGAAGAGCACACGU
B5: target 3 insG 3' of 7,insG 3' of 5 (mixed)
RNA 1: B4 RNA 1
RNA 2: GGGAAUGGAUCCACAUCUACGAAUUCGUUUUUGAUCUGAAAUAUUGCAGGGUCUGCAGAUCGGAAGAGCACACGU
B6: target 3 del1 (mixed)
RNA 1: B4 RNA 1
RNA 2: GGGAAUGGAUCCACAUCUACGAAUUCGUUUUUGAUCUGAAAUAUUCAGGUUGCAGAUCGGAAGAGCACACGU
B7: target 3 insA 3' of 14,insU 3' of 5 (mixed)
RNA 1: B4 RNA 1
RNA 2: B5 RNA 2 with U42A, A43U, U44A, G46U, G49U
B8: target 3 del1,del5 (mixed)
RNA 1: B4 RNA 1
RNA 2: GGGAAUGGAUCCACAUCUACGAAUUCGUUUUUGAUCUGAAAUAUUCGGUUGCAGAUCGGAAGAGCACACGU
B9: target 3 insA 3' of 4,insA 3' of 1 (mixed)
RNA 1: B4 RNA 1
RNA 2: B5 RNA 2 with G46C, C47A, A48G, G49A, G51U, U52C, C53A
B10: target 3 U7G,U22C (mixed)
RNA 1: B4 RNA 1
RNA 2: GGGAAUGGAUCCACAUCUACGAAUUCGUUCUUGAUCUGAAAUAUGCAGGUCUGCAGAUCGGAAGAGCACACGU
B11: target 3 U2G,A12C (mixed)
RNA 1: B4 RNA 1
RNA 2: B10 RNA 2 with C30U, A40C, G45U, U50G
B12: target 3 insA 3' of 21,insA 3' of 2 (mixed)
RNA 1: B4 RNA 1
RNA 2: B4 RNA 2 with A31U, U32A
B13: target 3 del2 (mixed)
RNA 1: B4 RNA 1
RNA 2: B6 RNA 2 with U50C
B14: target 3 del8 (mixed)
RNA 1: B4 RNA 1
RNA 2: B6 RNA 2 with U45C, C46A, A47G, G49U, U50C
B15: target 3 G3A,A5U (mixed)
RNA 1: B4 RNA 1
RNA 2: B10 RNA 2 with C30U, G45U, A47U, G49A
B16: target 3 C6U,U7A (mixed)
RNA 1: B4 RNA 1
RNA 2: B10 RNA 2 with C30U, G45A, C46U
B17: target 3 insA 3' of 4,insG 3' of 1 (mixed)
RNA 1: B4 RNA 1
RNA 2: B5 RNA 2 with G46C, C47A, A48G, G49A, G51U, U52C, C53G
B18: target 3 complement block 5-7 (mixed)
RNA 1: B4 RNA 1
RNA 2: B10 RNA 2 with C30U, G45A, C46G, A47U
B19: target 3 U2G,A11C (mixed)
RNA 1: B4 RNA 1
RNA 2: B10 RNA 2 with C30U, A41C, G45U, U50G
B20: target 3 U2G,A13U (mixed)
RNA 1: B4 RNA 1
RNA 2: B10 RNA 2 with C30U, A39U, G45U, U50G
B21: target 3 insG 3' of 8,insG 3' of 5 (mixed)
RNA 1: B4 RNA 1
RNA 2: B5 RNA 2 with U45G, G46U
B22: target 3 U2G,G14U (mixed)
RNA 1: B4 RNA 1
RNA 2: B10 RNA 2 with C30U, G38U, G45U, U50G
B23: target 3 insC 3' of 22,insG 3' of 2 (mixed)
RNA 1: B4 RNA 1
RNA 2: B4 RNA 2 with A31C, A52G
B24: target 3 G4A,U21A (mixed)
RNA 1: B4 RNA 1
RNA 2: B10 RNA 2 with C30U, U31A, G45U, G48A
B25: target 3 insA 3' of 10,insA 3' of 2 (mixed)
RNA 1: B4 RNA 1
RNA 2: B5 RNA 2 with U44A, G46U, G51U, U52A
B26: target 3 insU 3' of 22,insA 3' of 19 (mixed)
RNA 1: B4 RNA 1
RNA 2: GGGAAUGGAUCCACAUCUACGAAUUCGUUUUUUGAAUCUGAAAUAUUCAGGUCUGCAGAUCGGAAGAGCACACGU
B27: target 3 insC 3' of 7,insG 3' of 6 (mixed)
RNA 1: B4 RNA 1
RNA 2: B5 RNA 2 with G46C, A48G, G49A
B28: target 3 C1G,G4A (mixed)
RNA 1: B4 RNA 1
RNA 2: B10 RNA 2 with C30U, G45U, G48A, C51G
B29: target 3 insG 3' of 11,insA 3' of 6 (mixed)
RNA 1: B4 RNA 1
RNA 2: B5 RNA 2 with U42G, A43U, U44A, G46U, G49A
B30: target 3 insA 3' of 4,insU 3' of 1 (mixed)
RNA 1: B4 RNA 1
RNA 2: B5 RNA 2 with G46C, C47A, A48G, G49A, G51U, U52C, C53U

In this data set the target is T1, EsCas13d, nuclease-dead. The data set can be described thus: crRNA (strand 1, pre-loaded); Mg2+; 40 mM Tris-HCl pH 7.5, 150 mM NaCl, 6 mM MgCl2, 1 mM DTT, 0.1% Tween-20, 0.2 mg/ml BSA; 25 C; 10 min per concentration, then washed. The following applies: tags: His6-TwinStrep-SUMO cleaved; N-terminal SNAP kept (SNAP-Surface 488); label: 3' end held by stalled T7 RNA polymerase.
B1: the Kd (in general, the constant that tells how readily two partners part at equilibrium) worked out at 32 ± 5 nM.
The result for B2 reads 26.5 ± 1.1 nM; that for B3, 41 ± 4 nM; that for B4, 24.9 ± 2.35 nM.
Next, B5: 46.5 ± 7.5 nM.
As to B6, binding was characterised by a dissociation constant (Kd) of 27.1 ± 2.55 nM.
Next, B7: 69.5 ± 12.5 nM.
Next, B8: 14 ± 2.2 nM.
B9 came in with a Kd of 50.5 ± 23 nM.
The result for B10 reads 65 ± 26 nM; that for B11, 23.5 ± 4 nM; that for B12, 30.3 ± 2.6 nM.
The result for B13 reads 9.1 ± 0.7 nM; that for B14, around 114 nM; that for B15, 61.5 ± 8.5 nM.
The result for B16 reads 40 ± 4.25 nM; that for B17, 42 ± 13.5 nM.
Molecule B18 yielded a Kd of 39.1 ± 2.9 nM.
Next, B19: 63 ± 25.5 nM; B20: 46.5 ± 13.5 nM.
In turn, B21 gave a Kd of 62 ± 11 nM.
The molecule B22 yielded a Kd of 73.5 ± 13.5 nM.
Next, B23: 59 ± 11 nM; B24: 35.1 ± 3.15 nM.
Next, B25: 56 ± 8.5 nM.
B26 registered a Kd of 77 ± 16 nM.
In turn, B27 came in with a Kd of 63 ± 6 nM.
As to B28, the Kd was 15.9 ± 1.8 nM.
Next, B29: 91.5 ± 22 nM; B30: 70 ± 32 nM.
